In PMC2928777, “Neuropeptide delivery to the brain: a von Willebrand factor signal peptide to direct neuropeptide secretion” (BMC Neuroscience, 2010):

B1: flAgRP: supernatant of 293T cells transfected with full length mouse Agouti-related protein construct with normal AgRP signal peptide (protein, UniProt P56473 1-131, looked up)
chain: MLTAMLLSCVLLLALPPTLGVQMGVAPLKGIRRPDQALFPEFPGLSLNGLKKTTADRAEEVLLQKAEALAEVLDPQNRESRSPRRCVRLHESCLGQQVPCCDPCATCYCRFFNAFCYCRKLGTATNLCSRT
modifications: full-length
notes: supernatant of 293T cells transfected with full length mouse Agouti-related protein construct with normal AgRP signal peptide

Target: T1, human MC4R (Homo sapiens, UniProt P32245)
T1 construct: expressed in transfected cells; host or cells: HEK 293T cells, transient transfection with polyethylenimine, co-transfected with CRE-LacZ
Assay: LacZ reporter gene assay (MC4R_CRE-LacZ transfected 293T cells)
Type: cell-based
Details: for EC50: 10% of the volume added was supernatant of 293T cells transfected with the named construct, antagonism of MC4R (rightward shift), average of 4 trials, read-out: EC50 of NDP-MSH dose response curve in presence of supernatant
Procedure: Activation of MC4R in vitro results in an increase in cyclic adenosine monophosphate (cAMP)[27]. In our assay upregulation of cAMP increased LacZ expression through a cAMP responsive element.
Activation of the MC4R was determined using LacZ as a reporter gene. DNA was transfected into cells with polyethylenimine. Fifty nanograms of human MC4R and 10 μg of cAMP-responsive element (CRE)-LacZ were transfected into 293T cells on 10cm dishes. Another five 10cm dishes with 293T cells were transfected with 10 μg of respectively pAAV-GFP, pAAV-flAgRP, pAAV-VWF-AgRP83-132 , pAAV-VWF-αMSH1 and pAAV-VWF-αMSH4. One day after transfection the MC4R_CRE-LacZ cells were transferred to poly-L-lysine coated 96-wells plates. Three days after transfection supernatant of 10cm dishes was removed and used for LacZ reporter assay. […] In addition only forskolin was added to other wells as a positive control for CRE-LacZ transfection and the subsequent colometric reaction. The medium of another plate with MC4R_CRE-LacZ transfected cells was replaced with assay buffer containing serial dilutions of conditioned medium from cells transfected with αMSH1, αMSH4 or GFP. […] After 5-6 hour incubation at 37°C the assay medium was removed and replaced by 40 μl lysisbuffer (phosphate buffered saline (PBS) containing 0.1% Triton-X-100). The plates were stored at -20°C. After thawing of the plates, 80 μl of substrate (0.1 M phosphate buffer, pH7.4, containing 1.6 g/l o-nitrophenyl β-D-galactopyranoside (ONPG, Invitrogen, the Netherlands), 67.5 mM β-mercaptoethanol (Merck, Germany) and 1.5 mM magnesium chloride) was added to each well. Absorbance at 405 nm was measured in a Victor^2 microplate reader (PerkinElmer, Brussels, Belgium).
Data were analyzed with GraphPad Prism (GraphPad Software Inc., California). Competition curves were fitted from duplicate data points using sigmoidal dose response curve with variable slope.

T1 sequence (P32245 whole entry): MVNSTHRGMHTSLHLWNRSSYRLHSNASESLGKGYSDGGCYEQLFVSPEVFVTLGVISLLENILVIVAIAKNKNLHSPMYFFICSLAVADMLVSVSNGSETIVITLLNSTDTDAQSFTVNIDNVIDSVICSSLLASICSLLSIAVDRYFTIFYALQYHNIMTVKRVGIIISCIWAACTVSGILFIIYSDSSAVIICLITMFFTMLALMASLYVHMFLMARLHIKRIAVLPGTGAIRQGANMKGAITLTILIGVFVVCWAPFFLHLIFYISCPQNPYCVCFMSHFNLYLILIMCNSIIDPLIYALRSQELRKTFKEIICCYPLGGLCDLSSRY

Molecule | EC50 | Shift of NDP-MSH dose response curve in presence of supernatant (50% of the volume added was supernatant of transfected 293T cells)
VWF-AgRP83-132: minigene product: VWF signal peptide, HA tag, furin site and AgRP83-132; tested as supernatant of transfected 293T cells (SPRRCVRLHESCLGQQVPCCDPCATCYCRFFNAFCYCRKLGTATNLCSRT; not fully specified; Secreted furin-released minigene product; VWF signal peptide, HA tag and RKRR furin site left out; The name 83-132 follows human numbering; it equals mouse precursor 82-131, since the printed primer e) | 0.5 nM | –
B1 | 1.4 nM | shifted even further to the right
